# Laboratory results from patent US20170014503A1.
# How the values were obtained:
# [1] = target: SP62 (gp41 652-671)-GTH1 peptide anchored to liposomes (HIV-1); experiment: SPR, peptide anchored to phospholipid liposomes
# [2] = target: SP62-L669S (gp41 652-671)-GTH1 peptide anchored to liposomes (HIV-1); experiment: SPR, peptide anchored to phospholipid liposomes
# [3] = target: SP62 (gp41 652-671)-GTH1 peptide anchored to liposomes (HIV-1); experiment: BIAcore SPR on liposome-anchored peptide; encounter-docking model; forward rate of the docking step
# [4] = target: SP62-L669S (gp41 652-671)-GTH1 peptide anchored to liposomes (HIV-1); experiment: as above
# [5] = target: SP62 (gp41 652-671)-GTH1 peptide anchored to liposomes (HIV-1); experiment: BIAcore SPR on liposome-anchored peptide; encounter-docking model; reverse rate of the docking step
# [6] = target: SP62-L669S (gp41 652-671)-GTH1 peptide anchored to liposomes (HIV-1); experiment: as above
# [7] = target: SP62 (gp41 652-671)-GTH1 peptide anchored to liposomes (HIV-1); experiment: BIAcore SPR on liposome-anchored peptide; encounter-docking model; dissociation of the encounter step
# [8] = target: SP62-L669S (gp41 652-671)-GTH1 peptide anchored to liposomes (HIV-1); experiment: as above
# [9] = target: SP62 (gp41 652-671)-GTH1 peptide anchored to liposomes (HIV-1); experiment: BIAcore SPR on liposome-anchored peptide; encounter-docking model A + B <-> AB (encounter) <-> ABx (docked); association of the encounter step
# [10] = target: SP62-L669S (gp41 652-671)-GTH1 peptide anchored to liposomes (HIV-1); experiment: as above
substance,measurement,setting,value
2F5 mAb (antibody),reactivity value in column 'KYNU mut',KYNU mut,0.465
same,reactivity value in column 'KYNU wt',KYNU wt,3.63
same,response unit at 10 seconds after the injection was stopped,[1],495 RU
same,response unit (background subtracted) at 10 seconds after the injection was stopped,[2],617 RU
same,ka2,[3],0.0181 s⁻¹
same,ka2,[4],0.0054 s⁻¹
same,kd2,[5],0.00037 s⁻¹
same,kd2,[6],2e-05 s⁻¹
same,kd1,[7],0.00692 s⁻¹
same,kd1,[8],0.00119 s⁻¹
same,ka1,[9],931000 M⁻¹ s⁻¹
same,ka1,[10],498000 M⁻¹ s⁻¹
